Assay results reported in publication PMC2104711 (The EMBO Journal, 2007).

Target: human XLF/Cernunnos (1–233), tag-free (cleaved XLF441) (human, UniProt Q9H9Q4 1-233)
Experiment: SPR

Chain of human XLF/Cernunnos (1–233), tag-free (cleaved XLF441) (Q9H9Q4 1-233): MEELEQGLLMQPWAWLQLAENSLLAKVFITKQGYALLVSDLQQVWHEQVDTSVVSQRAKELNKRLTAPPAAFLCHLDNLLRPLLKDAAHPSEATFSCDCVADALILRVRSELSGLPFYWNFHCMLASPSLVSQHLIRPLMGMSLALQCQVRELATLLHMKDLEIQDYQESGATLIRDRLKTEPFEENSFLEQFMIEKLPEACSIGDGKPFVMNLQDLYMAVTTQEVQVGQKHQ

Kd: 7.8 µM
B1: XRCC4 (1–213) with N-terminal His6 tag (domain or fragment, UniProt Q13426 1-213, looked up)
chain: MERKISRIHLVSEPSITHFLQVSWEKTLESGFVITLTDGHSAWTGTVSESEISQEADDMAMEKGKYVGELRKALLSGAGPADVYTFNFSKESCYFFFEKNLKDVSFRLGSFNLEKVENPAEVIRELICYCLDTIAENQAKNEHLQKENERLLRDWNDVQGRFEKCVSAKEALETDLYKRFILVLNEKKTKIRSLHNKLLNAAQEREKDIKQEG
